In the test the target is T1, recombinant IsaA protein of Staphylococcus aureus (29 kDa immunodominant antigen IsaA) (Staphylococcus aureus, UniProt Q2FV52 30-233, limits assumed).
T1 construct: Coated as rIsaA in the ELISA; In the first SPR experiment it was N-biotinylated with sulfo-NHS-LC-biotin (mostly at a single site) and immobilised on streptavidin; In the second SPR experiment it was the analyte in solution; also called rIsaA; 29 kDa IsaA antigen
T1 sequence (looked up): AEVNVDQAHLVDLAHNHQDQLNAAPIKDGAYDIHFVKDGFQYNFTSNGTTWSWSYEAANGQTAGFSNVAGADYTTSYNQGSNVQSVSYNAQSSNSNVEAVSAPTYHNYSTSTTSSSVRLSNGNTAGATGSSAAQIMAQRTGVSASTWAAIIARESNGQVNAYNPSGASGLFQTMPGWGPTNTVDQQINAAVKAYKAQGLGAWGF
In words: SPR (BIACORE 2000), biotinylated IsaA on streptavidin chip, antibody as analyte; off rate set to 10^-5 sec^-1; off rate set to 10^-5 sec^-1. (In general: SPR reads the build-up and loss of mass on a sensor chip optically.)

Experimental: The amount of the immobilized antigen corresponds to about 100 resonance units [RU] measured by means of the BIACORE®2000 system.
Interaction analyses were performed using HBS150 buffer (10 mM HEPES pH7.4, 150 mM NaCl, 3.4 mM EDTA). Sensorgrams were recorded at a flow rate of 10 μl/min at 25° C. The association and dissociation time was set to 10 min. The chips were regenerated after each cycle with different regeneration solutions (A: 1 mM CH₃COOH, 1 M NaCl, pH 3; B: 4 M MgCl₂; C: 1 mM CH₃COOH, 1 M NaCl, 6 M Urea, pH 3) for 2 min.
Since the evaluation of the kinetic rate constant is limited to 10⁻⁵ sec⁻¹ the observed off-rate has to be smaller than that value.

B1: monoclonal antibody MAB-UK-66 secreted by hybridoma cell line DSM ACC2987 (antibody, V domains shown)
VH: DVKLVESGGGLVKLGGSLKLSCSASGFTFSNYYMSWVRQTPEKRLELVADINGNGGSTYYPDTVKGRFTISRDNAKNTLYLQMSSLKSEDTALYYCVRRGGYYALDYWGQGTTVTVSS
VL: DVVMTQTPLSLPVSLGDQASISCRSSQSLVHINGNTYLHWYLQKPGQSPKLLIYRVSNRFSGVPDRFSGSGSGTDFTLKISRVEAEDLGVYFCSQSTHVPWTFGGGTKLELKR
notes: Monoclonal mouse antibody from a hybridoma; Detected with anti-mouse IgG; also called antibodies secreted by cell line DSM ACC2987; anti-IsaA MAB
As for B1, the Kd is ≤ 0.018 nM and the kon is 560000 M⁻¹ s⁻¹.

Usually Kd stands for the concentration at which binding is half-saturated. Broadly, the kon is the rate constant with which the complex forms.

For the origin of these results see patent US20160109449A1 (JULIUS MAXIMILIANS UNIVERSITAET WUERZBURG, published 2016).
